How the values were obtained:
[1] = molecular target: T1, human VLA-1 α1 subunit (CD49a), full-length, on transfected CHO cells (human, UniProt P56199 29-1179); experiment: cell-based or functional assay
[2] = molecular target: T2, human VLA-1 (alpha 1/beta 1, CD49a/CD29) on IL-2 stimulated human PBMC / T cells (human, UniProt P56199 29-1179; P05556 21-798); experiment: cell-based or functional assay
[3] = molecular target: T1, human VLA-1 α1 subunit (CD49a), …; experiment: cell-based or functional assay; remark: listed apart in the source
[4] = molecular target: T3, human CD49a I domain E48K (human, UniProt P56199 151-364, E48K); experiment: ELISA on secreted mutant I domain
T3 construct: domain: I domain; not shown: myc and His tags

[5] = molecular target: T4, human CD49a I domain E66A (human, UniProt P56199 151-364, E66A); experiment: ELISA on secreted mutant I domain
T4 construct: domain: I domain; not shown: myc and His tags

[6] = molecular target: T5, human CD49a I domain K88N (human, UniProt P56199 151-364, K88N); experiment: ELISA on secreted mutant I domain
T5 construct: domain: I domain; not shown: myc and His tags

[7] = molecular target: T6, human CD49a I domain S162H (human, UniProt P56199 151-364, S162H); experiment: ELISA on secreted mutant I domain
T6 construct: domain: I domain; not shown: myc and His tags

[8] = molecular target: T7, human CD49a I domain with residues 91-96 VQRGGR replaced by mouse GRRGGL (human, UniProt P56199 151-364, V91G; Q92R; R96L); experiment: ELISA on secreted mutant I domain
T7 construct: domain: I domain; also called V91G, Q92R, R96L; not shown: myc and His tags

[9] = molecular target: T8, human CD49a I domain I11F (human, UniProt P56199 151-364, I11F); experiment: ELISA on secreted mutant I domain
T8 construct: domain: I domain; not shown: myc and His tags

[10] = molecular target: T9, human CD49a I domain T204A (human, UniProt P56199 151-364, T204A); experiment: ELISA on secreted mutant I domain
T9 construct: domain: I domain; not shown: myc and His tags

[11] = molecular target: T10, human CD49a I domain K142Q (human, UniProt P56199 151-364, K142Q); experiment: ELISA on secreted mutant I domain
T10 construct: domain: I domain; text prints KI42Q once; not shown: myc and His tags

[12] = molecular target: T2, human VLA-1 (alpha 1/beta 1, …); experiment: cell-based or functional assay; remark: listed apart in the source
[13] = molecular target: T2, human VLA-1 (alpha 1/beta 1, …); experiment: cell-based or functional assay; remark: listed apart in the source
[14] = molecular target: T2, human VLA-1 (alpha 1/beta 1, …); experiment: cell-based or functional assay; remark: listed apart in the source

B1: 6.17 (antibody, V domains shown)
VH: EVQLVQSGAEVKKPGESLRISCKGSGYSVSSYWIGWVRQMPGKGLEWMGIIYPGDSDTRYSPSFQGQVTISADKSISTAFLQWISLKASDTAMYYCARLQGDCSGGSCYGHFDYWGQGTLVTVS
VL: EIVLTQSPGTLSLSPGERATLSCRASQTISSGYLAWYQQKPAQAPRLLIYVASRRATGIPDRFSGSGSGTDFTLTISRLEPEDFAVYYCQQYGSSSWTFGQGTTVEIK
notes: human IgG2 or IgG4
- relative inhibition at an optimal concentration, CHO-VLA-1 adhesion to collagen IV [1]: > 80%
- % adhesion of T cells to collagen IV vs no antibody, 0.5 nM mAb, no PMA [2]: 76.3%
- % adhesion of T cells to collagen IV vs no antibody, 5 nM mAb, no PMA [2]: 22.3%
- IC50, adhesion of CHO-VLA-1 cells to collagen IV [3]: 0.27 nM
- binding result [4]: binds
- binding result [5]: binds
- binding result [6]: binds
- binding result [7]: no binding
- binding result [8]: no binding
- binding result [9]: binds
- binding result [10]: binds
- binding result [11]: binds
- % adhesion of IL-2 activated T cells to collagen IV vs no antibody, 10 µg/ml, +PMA [12]: 22.5%
- % adhesion of IL-2 activated T cells to collagen IV vs no antibody, 10 µg/ml, -PMA [12]: 64.1%
- % adhesion of T cells to collagen IV vs no antibody, 0.5 nM mAb, 10 ng/ml PMA [13]: 93.7%
- % adhesion of T cells to collagen IV vs no antibody, 5 nM mAb, 10 ng/ml PMA [13]: 63.7%

B2: 6.18 (antibody, V domains shown)
VH: EVQLVQSGAEVKKPGESLRISCKGSGYSVTSYWIGWVRQMPGKGLEWMGIIYPGDSDTRYSPSFQGQVTISADKSISTAYLQWSSLKASDTAMYYCARLQGDCSGGTCYGHFDYWGQGTLVTVS
VL: EIVLTQSPGTLSLSPGERATLSCRASQSVSSSYLAWYQQKPAQAPRLLIYVASRRATGIPDRFSGSGSGTDFTLTISRLEPEDFAVYYCQQYGTSSWTFGQGTTVEIK
notes: human IgG2 or IgG4
- relative inhibition at an optimal concentration, CHO-VLA-1 adhesion to collagen IV [1]: > 80%
- % adhesion of T cells to collagen IV vs no antibody, 0.5 nM mAb, no PMA [2]: 85%
- % adhesion of T cells to collagen IV vs no antibody, 5 nM mAb, no PMA [2]: 19.7%
- IC50, adhesion of CHO-VLA-1 cells to collagen IV [3]: 0.19 nM
- binding result [4]: binds
- binding result [5]: binds
- binding result [6]: binds
- binding result [7]: no binding
- binding result [8]: no binding
- binding result [9]: binds
- binding result [10]: binds
- binding result [11]: binds
- % adhesion of IL-2 activated T cells to collagen IV vs no antibody, 10 µg/ml, +PMA [12]: 31.2%
- % adhesion of IL-2 activated T cells to collagen IV vs no antibody, 10 µg/ml, -PMA [12]: 58.5%
- % adhesion of T cells to collagen IV vs no antibody, 0.5 nM mAb, 10 ng/ml PMA [13]: 98.4%
- % adhesion of T cells to collagen IV vs no antibody, 5 nM mAb, 10 ng/ml PMA [13]: 55.5%

B3: 7.11 (antibody, V domains shown)
VH: QVQLQESGPGLVKPPETLSLTCTVSGGSISSHYWSWIRQPAGKGLEWIGRIYTSGSTNYNPPLKSRVTMSVDTSKNQFSLKLSSVTAADTAVYYCAREGYDFWSGYYNYYYGMDVWGQGTTVTVS
VL: EIVLTQSPGTLSLSPGERATLSCRASQSVISSYLAWYQQKPGQAPRLLIYGASSRATGIPDRFSGSGSGTDFTLTISRLEPEDFAVYYCQQYGSAFTFGGGTKVEIK
- T cell adhesion to immobilized collagen IV, relative estimated IC50 [14]: > 5 nM

B4: 2.7 (antibody, V domains shown)
VH: EVQLVESGGGLVKPGGSLRLSCAASGFTFSNAWMSWVRQAPGKGLEWVGRIKRKTDGETTDYAAPVKGRFTISRDDSRNTLYLQMNSLKTEDTAVYYCTIYTYYYGMDVWGQGTTVTVSS
VL: DIQMTQSPSSLSASVGDRVTITCRASQSINNYLNWYQQKPGKAPKLLIYAASSLESGVPSRFSGSGSGTDFTLTISSLQPEDFATYYCQQSYSTPPTFGQGTKVEIK
notes: human IgG2 or IgG4; also called antibody 2.7
- relative inhibition at an optimal concentration, CHO-VLA-1 adhesion to collagen IV [1]: > 80%
- % adhesion of T cells to collagen IV vs no antibody, 0.5 nM mAb, no PMA [2]: 33.5%
- % adhesion of T cells to collagen IV vs no antibody, 5 nM mAb, no PMA [2]: 12.1%
- IC50, adhesion of CHO-VLA-1 cells to collagen IV [3]: 0.08 nM
- binding result [4]: binds
- binding result [5]: no binding
- binding result [6]: binds
- binding result [7]: binds
- binding result [8]: no binding
- binding result [9]: binds
- binding result [10]: binds
- binding result [11]: binds
- % adhesion of IL-2 activated T cells to collagen IV vs no antibody, 10 µg/ml, +PMA [12]: 18%
- % adhesion of IL-2 activated T cells to collagen IV vs no antibody, 10 µg/ml, -PMA [12]: 30%
- % adhesion of T cells to collagen IV vs no antibody, 0.5 nM mAb, 10 ng/ml PMA [13]: 85.4%
- % adhesion of T cells to collagen IV vs no antibody, 5 nM mAb, 10 ng/ml PMA [13]: 34.8%

Reference: US20060286112A1 (published 2006)
